Our source for the fold expansion of human T cells values is US20190292517A1.

The assay addresses CD3 on human peripheral blood T cells (human) (UniProt P07766). Nature of the assay: cell-based or functional assay.

Consider “UCHT1, monoclonal antibody recognizing a 20 kDa subunit of the TCR complex within CD3e”, for which the fold expansion of human T cells at day 13, 5 ug anti-CD3 on APC-MS (1:1 with anti-CD28) lay in the range of 600 to 800 fold.

The substance muromonab (OKT3), anti-CD3 antibody registered a fold expansion of human T cells at day 13, 0.5 ug anti-CD3 on APC-MS (1:1 with anti-CD28) of 600 to 700 fold; a fold expansion of human T cells at day 13, 1 ug anti-CD3 on APC-MS (1:1 with anti-CD28) of 300 to 400 fold; a fold expansion of human T cells at day 13, 5 ug anti-CD3 on APC-MS (1:1 with anti-CD28) of 600 to 800 fold.

With “HIT3a, antibody recognizing 17-19 kD epsilon-chain of CD3 within the CD3 antigen/T cell antigen receptor (TCR) complex”, the fold expansion of human T cells at day 13, 1 ug anti-CD3 on APC-MS (1:1 with anti-CD28) is 300 to 400 fold and the fold expansion of human T cells at day 13, 5 ug anti-CD3 on APC-MS (1:1 with anti-CD28) is 600 to 800 fold.
